{"source": "paper doi:10.1101/718155", "key": {"S100A2": {"biological_target": "S100A2", "test": "FP"}, "S100A4 [1]": {"biological_target": "S100A4", "test": "FP"}, "S100A4 [2]": {"biological_target": "S100A4", "test": "ITC"}, "S100A14": {"biological_target": "S100A14", "test": "FP"}, "S100A5": {"biological_target": "S100A5", "test": "FP"}, "S100A1": {"biological_target": "S100A1", "test": "FP"}, "S100G": {"biological_target": "S100G", "test": "FP"}, "S100A15": {"biological_target": "S100A15", "test": "FP"}, "S100A6": {"biological_target": "S100A6", "test": "FP"}, "S100A7": {"biological_target": "S100A7", "test": "FP"}, "S100P": {"biological_target": "S100P", "test": "FP"}, "S100A3": {"biological_target": "S100A3", "test": "FP"}, "[3]": {"biological_target": "C-ERMAD (516-560 and 516-586) peptide (UniProt P15311)", "sequence (P15311 516-586)": "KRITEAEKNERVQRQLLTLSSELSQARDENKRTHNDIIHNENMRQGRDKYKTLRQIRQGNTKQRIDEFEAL", "test": "FP"}, "S100A11": {"biological_target": "S100A11", "test": "FP"}}}
{"substance": "C-ERMAD (516-560 and 516-586) peptide (from UniProt P15311 516-586)", "values": [{"measurement": "Kd", "setting": "S100A2", "value": 5.4, "unit": "µM"}, {"measurement": "Kd", "setting": "S100A4 [1]", "value": 6.1, "unit": "µM"}, {"measurement": "Kd", "setting": "S100A4 [2]", "value": 35, "unit": "µM"}]}
{"substance": "FOR20", "values": [{"measurement": "Kd", "setting": "S100A14", "value": 63, "unit": "µM"}, {"measurement": "Kd", "setting": "S100A5", "value": 1.9, "unit": "µM"}, {"measurement": "Kd", "setting": "S100A1", "value": 0.5, "unit": "µM"}, {"measurement": "Kd", "setting": "S100A2", "value": 0.27, "unit": "µM"}, {"measurement": "Kd", "setting": "S100A4 [1]", "value": 2, "unit": "µM"}, {"measurement": "Kd", "setting": "S100G", "value": 3.8, "unit": "µM"}, {"measurement": "Kd", "setting": "S100A15", "value": 17, "unit": "µM"}, {"measurement": "Kd", "setting": "S100A6", "value": 0.007, "unit": "µM"}, {"measurement": "Kd", "setting": "S100A7", "value": 5.9, "unit": "µM"}, {"measurement": "Kd", "setting": "S100P", "value": 1.2, "unit": "µM"}, {"measurement": "Kd", "setting": "S100A3", "value": 29, "unit": "µM"}]}
{"substance": "MK2", "values": [{"measurement": "Kd", "setting": "S100A1", "value": 15, "unit": "µM"}, {"measurement": "Kd", "setting": "S100A2", "value": 4.5, "unit": "µM"}, {"measurement": "Kd", "setting": "S100P", "value": 2.7, "unit": "µM"}]}
{"substance": "MNK1", "values": [{"measurement": "Kd", "setting": "S100A2", "value": 18, "unit": "µM"}, {"measurement": "Kd", "setting": "S100A4 [1]", "value": 24, "unit": "µM"}, {"measurement": "Kd", "setting": "S100A6", "value": 6.7, "unit": "µM"}, {"measurement": "Kd", "setting": "S100P", "value": 2.5, "unit": "µM"}]}
{"substance": "S100A2", "values": [{"measurement": "Kd", "setting": "[3]", "value": 15, "unit": "µM"}]}
{"substance": "S100A4", "values": [{"measurement": "Kd", "setting": "[3]", "value": 11, "unit": "µM"}]}
{"substance": "p53 (1-60; 17-53) peptide (from UniProt P04637 1-60)", "values": [{"measurement": "Kd", "setting": "S100A5", "value": 67, "unit": "µM"}, {"measurement": "Kd", "setting": "S100A2", "value": 5.2, "unit": "µM"}, {"measurement": "Kd", "setting": "S100A4 [1]", "value": 2.1, "unit": "µM"}, {"measurement": "Kd", "setting": "S100A11", "value": 12, "unit": "µM"}, {"measurement": "Kd", "setting": "S100A6", "value": 2.2, "unit": "µM"}, {"measurement": "Kd", "setting": "S100A3", "value": 7.7, "unit": "µM"}]}
